# Laboratory results from the Human Domainome abundance scans (Beltran et al. 2025).
# ± gives the uncertainty stated by the source.
# B1: Gamma-crystallin S, residues 96 to 176; numbered along this chain, P22914 (parent)
# chain: IQIFEKGDFSGQMYETTEDCPSIMEQFHMREIHSCKVLEGVWIFYELPNYRGRQYLLDKKEYRKPIDWGAASPAVQSFRRI
# B2: Homeobox protein cut-like 2, residues 895 to 963; numbered along this chain, O14529 (parent)
# chain: EVDTLELTRQVKEKLAKNGICQRIFGEKVLGLSQGSVSDMLSRPKPWSKLTQKGREPFIRMQLWLSDQL
# Variants of: B1
# Test: abundance fitness (aPCA) (normalised: wild type 0, dead -1); higher = more abundant; growth selection in yeast, the domain comes from the species named
# Conditions: Homo sapiens
row,Variant,abundance fitness
1,P73R,-0.006 ± 0.11
2,P73H,0.006 ± 0.31
3,P73W,0.089 ± 0.13
4,P73L,0.338 ± 0.39
5,P73T,-0.082 ± 0.39
6,R80L,0.02 ± 0.17
7,R80C,0.059 ± 0.36
8,R80E,-0.253 ± 0.28
9,R80S,-0.023 ± 0.12
10,R80A,-0.381 ± 0.27
11,R80V,0.062 ± 0.14
12,R80G,0.028 ± 0.13
13,R80H,-0.573 ± 0.33
14,R80Y,-0.919 ± 0.49
15,R80Q,-0.491 ± 0.24
16,Q76W,-0.441 ± 0.39
17,Q76L,-0.129 ± 0.27
18,Q76E,-0.145 ± 0.29
19,Q76G,-0.066 ± 0.34
20,F78Y,-0.023 ± 0.24
21,F78H,-0.229 ± 0.37
22,F78V,-0.039 ± 0.16
23,F78A,-0.136 ± 0.17
24,F78S,-0.37 ± 0.21
25,F78L,0.059 ± 0.3
26,F78K,-0.771 ± 0.38

row,Variant,abundance fitness
1,F78R,-1.11 ± 0.38
2,F78I,-0.228 ± 0.33
3,F78P,-0.869 ± 0.43
4,R79L,-0.406 ± 0.16
5,R79K,-0.358 ± 0.33
6,R79A,0.147 ± 0.37
7,R79S,-0.036 ± 0.06
8,R79Q,-0.058 ± 0.33
9,R79E,-0.191 ± 0.37
10,R79G,-0.413 ± 0.14
11,R79W,-0.419 ± 0.33
12,R79T,0.021 ± 0.21
13,R79V,-0.596 ± 0.26
14,R79I,-0.294 ± 0.24
15,R79M,-0.346 ± 0.2
16,A74V,0.086 ± 0.2
17,A74L,0.113 ± 0.12
18,A74M,-0.011 ± 0.19
19,A74E,-0.139 ± 0.29
20,A74G,0.046 ± 0.12
21,A74C,0.203 ± 0.16
22,A74T,-0.159 ± 0.16
23,A74S,-0.111 ± 0.17
24,A74R,0.118 ± 0.24
25,A74Q,0.034 ± 0.17
26,V75D,-0.724 ± 0.28

row,Variant,abundance fitness
1,V75T,-0.211 ± 0.15
2,V75A,-0.021 ± 0.16
3,V75F,0.146 ± 0.21
4,V75E,-0.821 ± 0.22
5,V75G,0.052 ± 0.16
6,V75R,-0.665 ± 0.23
7,V75W,-0.105 ± 0.16
8,V75L,-0.046 ± 0.12
9,S77C,-0.327 ± 0.44
10,S77T,-0.714 ± 0.37
11,S77A,-0.003 ± 0.18
12,S77G,-0.35 ± 0.13
13,S77L,-0.932 ± 0.48
14,S77P,-0.457 ± 0.23
15,I81K,-0.186 ± 0.24
16,I81C,0.106 ± 0.16
17,I81N,0.165 ± 0.49
18,I81L,-0.065 ± 0.29
19,I81M,-0.31 ± 0.23
20,I81R,-0.074 ± 0.14
21,I81D,0.114 ± 0.27
22,I81E,0.026 ± 0.14
23,I81S,-0.043 ± 0.38
24,I81Q,0.045 ± 0.21

# Variants of: B2
# Test: as above
# Conditions: Homo sapiens
row,Variant,abundance fitness
1,E6D,0.096 ± 0.055
2,E6H,-0.142 ± 0.34
3,E6Q,-0.258 ± 0.12
4,E6C,-0.231 ± 0.042
5,E6I,-0.196 ± 0.077
6,E6R,-0.162 ± 0.034
7,E6V,-0.191 ± 0.028
8,E6K,-0.035 ± 0.045
9,E6A,-0.123 ± 0.052
10,E6M,-0.192 ± 0.035
11,E6G,-0.111 ± 0.027
12,E6T,-0.129 ± 0.08
13,E6N,-0.055 ± 0.1
14,E6S,-0.095 ± 0.047
15,E6F,-0.192 ± 0.053
16,T4E,-0.208 ± 0.041
17,T4D,-0.092 ± 0.066
18,T4R,-0.13 ± 0.035
19,T4L,-0.215 ± 0.027
20,T4S,-0.244 ± 0.034
21,T4Y,-0.468 ± 0.068
22,T4F,-0.006 ± 0.063
23,T4K,-0.14 ± 0.035

row,Variant,abundance fitness
1,T4G,-0.282 ± 0.035
2,T4P,-0.179 ± 0.039
3,T4M,0.037 ± 0.03
4,T4I,-0.126 ± 0.059
5,T4A,-0.334 ± 0.034
6,T4H,-0.186 ± 0.051
7,T4Q,-0.254 ± 0.033
8,T4C,-0.3 ± 0.073
9,T4W,-0.015 ± 0.039
10,T4V,-0.221 ± 0.031
11,L5D,-0.146 ± 0.048
12,L5M,0.122 ± 0.029
13,L5R,-0.039 ± 0.031
14,L5N,0.046 ± 0.058
15,L5Y,-0.033 ± 0.051
16,L5T,0.015 ± 0.032
17,L5G,-0.061 ± 0.03
18,L5S,-0.231 ± 0.03
19,L5K,0.102 ± 0.031
20,L5E,0.083 ± 0.031
21,L5A,0.028 ± 0.028
22,L5P,-0.076 ± 0.036
23,L5F,0.025 ± 0.042

row,Variant,abundance fitness
1,L5I,0.024 ± 0.045
2,L5V,0.015 ± 0.026
3,L5C,-0.03 ± 0.052
4,L5W,-0.021 ± 0.033
5,D3Y,-0.358 ± 0.047
6,D3S,-0.084 ± 0.062
7,D3C,-0.279 ± 0.047
8,D3G,-0.253 ± 0.033
9,D3F,-0.139 ± 0.047
10,D3K,-0.203 ± 0.032
11,D3W,-0.221 ± 0.035
12,D3E,-0.277 ± 0.041
13,D3N,-0.001 ± 0.056
14,D3I,-0.541 ± 0.06
15,D3R,-0.316 ± 0.043
16,D3M,-0.163 ± 0.027
17,D3V,-0.42 ± 0.029
18,E1L,-0.3 ± 0.045
19,E1V,-0.213 ± 0.038
20,E1H,-0.149 ± 0.27
21,E1Q,-0.278 ± 0.12
22,E1F,-0.079 ± 0.17
23,E1M,0.034 ± 0.046

row,Variant,abundance fitness
1,E1D,-0.457 ± 0.093
2,E1T,-0.247 ± 0.075
3,E1N,-0.067 ± 0.13
4,E1C,0.037 ± 0.17
5,E1K,-0.026 ± 0.067
6,E1A,-0.122 ± 0.054
7,E1W,-0.239 ± 0.088
8,E1S,-0.063 ± 0.12
9,V2L,0.03 ± 0.027
10,V2E,-0.019 ± 0.047
11,V2N,-0.136 ± 0.077
12,V2Y,-0.152 ± 0.069
13,V2P,-0.244 ± 0.056
14,V2D,-0.301 ± 0.072
15,V2K,0.017 ± 0.053
16,V2H,-0.201 ± 0.068
17,V2S,-0.019 ± 0.033
18,V2R,-0.041 ± 0.052
19,V2W,-0.137 ± 0.045
20,V2F,-0.024 ± 0.048
21,V2G,-0.001 ± 0.05
22,V2M,0.077 ± 0.038
